Results taken from US20230277632A1, “MODIFIED PlySs2 LYSINS AND ANTIBIOTIC COMBINATIONS FOR USE AGAINST GRAM-POSITIVE BACTERIA” (ContraFect Corporation, priority 2020, published 2023).
Read-outs that look alike come from different tables or passages of the source.

Key:
MSSA strains = experiment: Checkerboard assay: pp296 or CF-301 with oxacillin; type: cell-based, Staphylococcus aureus; details: for FIC: pp296 + oxacillin; for ΣFICmin: with oxacillin
From the text: In some embodiments, the present modified lysin polypeptides reduce the minimum inhibitory concentration (MIC) of an antibiotic. Any known method to assess MIC may be used. In some embodiments, a checkerboard assay is used to determine the effect of a lysin on antibiotic concentration. The checkerboard assay is based on a modification of the CLSI method for MIC determination by broth microdilution (See Clinical and Laboratory Standards Institute (CLSI), CLSI. 2015. Methods for Dilution Antimicrobial Susceptibility Tests for Bacteria That Grow Aerobically; Approved Standard-10th Edition. Clinical and Laboratory Standards Institute, Wayne, Pa., which is herein incorporated by reference in its entirety and Ceri et al. 1999. J. Clin. Microbiol. 37: 1771-1776, which is also herein incorporated by reference in its entirety).
Checkerboards are constructed by first preparing columns of e.g., a 96-well polypropylene microtiter plate, wherein each well has the same amount of antibiotic diluted 2-fold along the horizontal axis. […] The lysin and antibiotic dilutions are then combined, so that each column has a constant amount of antibiotic and doubling dilutions of lysin, while each row has a constant amount of lysin and doubling dilutions of antibiotic. Each well thus has a unique combination of lysin and antibiotic. Bacteria are added to the drug combinations at a given concentration. […] Summation fractional inhibitory concentrations (ΣFICs) are calculated for each drug and the minimum ΣFIC value (ΣFICmin) is used to determine the effect of the lysin/antibiotic combination.
The ability of CF-301 or a modified lysin polypeptide pp296 to synergize with oxacillin was assessed using a checkerboard analysis. For the checkerboard assay, a total of 50 μl of Mueller-Hinton broth is distributed into each well of microdilution plates. Then, a first antibiotic of a combination is serially diluted along the ordinate, while a second drug is diluted along the abscissa. An inoculum equal to a 0.5 McFarland turbidity standard is prepared from each bacterial isolate in Mueller-Hinton broth. Each microtiter well is then inoculated with 100 μl of a bacterial inoculum of 5×10^5 CFU/ml, and the plates are incubated at 37° C. for 18 h under aerobic conditions. The resulting checkerboard contains each combination of two antibiotics, with wells that contain the highest concentration of each antibiotic at opposite corners. […] To quantify the interactions between the antibiotics being tested, the FIC index (the combination of antibiotics that produced the greatest change from the individual antibiotic's MIC) value is calculated for each strain and antibiotic combination as follows:
(A/MICA)+(B/MICB)=FICA+FICB=FIC index,
where A and B are the MIC of each agent in combination in a single well, and MICA and MICB are the MIC of each drug when used individually. The combination is considered strongly synergistic when the FIC index is ≤0.5 and synergistic when the FIC index is >0.5-<1.

S. aureus isolates = experiment: In vivo efficacy of daptomycin in combination with pp296, neutropenic murine thigh infection model; details: 24 h
Experimental: Study animals: Specific pathogen-free female ICR mice (average body weight 23 grams) were provided food and water ad libitum and maintained and used in accordance with National Research Council recommendations. Animals were allowed a 48-hour post-delivery acclimation period before every experiment. Mice were rendered transiently neutropenic by injection of cyclophosphamide via intraperitoneal (IP) route at a dose of 150 mg/kg of body weight at four days before bacterial inoculation and 100 mg/kg of body weight at one day before bacterial inoculation.
Neutropenic Thigh Infection Model: Two transfers of the bacterial isolates were performed onto trypticase soy agar plates with 5% sheep blood and placed into an incubator at 37° C. for approximately 24 hours. After an 18-24 hour incubation of the second transfer, a suspension of approximately 10^7 CFU/mL was made for inoculation. Final bacterial inoculum concentrations were confirmed by serial dilution and plating techniques. Thigh infection with the test isolate was produced by intramuscular injection of 0.1 mL of the bacterial inoculum into each thigh of the mice. Antimicrobial therapy was initiated 2 hours after bacterial inoculation, as detailed below.
Untreated control mice (n=3) were sacrificed just prior to antibiotic administration and 24 hours after bacterial inoculation. Animals sacrificed prior to antibiotic initiation served as 0-hour control animals, representing initial bacterial burden. […] Treatment mice (n=3/group) were sacrificed at the end of the 24 hour treatment period. After sacrifice, both thighs for each mouse were homogenized in normal saline. Serial dilutions were plated on Trypticase soy agar with 5% sheep blood and incubated for 18 to 20 hours at 37.0 to determine the CFU. Efficacy was calculated as the change in bacterial density obtained in treated mice after 24 hours compared with the numbers in the 0-hour control animals. Bacterial density represents the average CFU determined from 3 mice, each contributing 2 thighs.
For the 4 S. aureus isolates HPV107, CAIRD426, JMI227, and NRS123, the following sub-therapeutic daptomycin dosage regimen was adopted: 0.76 mg/kg at 0 hrs, 0.4 mg/kg at 4 hrs, 0.24 mg/kg at 10 hrs, and 0.12 mg/kg at 17 hrs.

[1] = test system: 5 MSSA and 5 MRSA isolates; details: cited from earlier work

B1: pp296: modified PlySs2 lysin, SEQ ID NO: 6: L92W, V104S, V128T, Y137S, Y164K, N184D, S198Q (protein)
chain: MTTVNEALNNVRAQVGSGVSVGNGECYALASWYERMISPDATVGLGAGVGWVSGAIGDTISAKNIGSSYNWQANGWTVSTSGPFKAGQIVTWGATPGNPYGHVSIVEAVDGDRLTILEQNYGGKRYPTRNYYSAASSRQQVVHYITPPGTVAQSAPNLAGSRSKRETGTMTVTVDALNVRRAPDTSGEIVAVYKRGEQFDYDTAIIDVNGYAWVSYIGGSGKRNYVATGATKDGKRFGNAWGTFK
Single agent MICs (MSSA strains; MSSA ATCC 29213): 1 µg/mL | Single agent MICs (MSSA strains; MSSA JMI-6625): 1 µg/mL | Single agent MICs (MSSA strains; MSSA JMI-6885): 1 µg/mL | Single agent MICs (MSSA strains; MSSA JMI-6886): 1 µg/mL | Single agent MICs (MSSA strains; MSSA JMI-7054): 1 µg/mL | Single agent MICs (MSSA strains; MSSA JMI-7160): 1 µg/mL | Single agent MICs (MSSA strains; MSSA JMI-38739): 1 µg/mL | Single agent MICs (MSSA strains; MSSA JMI-38986): 1 µg/mL | Single agent MICs (MSSA strains; MSSA JMI-40671): 1 µg/mL | Single agent MICs (MSSA strains; MSSA JMI-46142): 1 µg/mL | FIC (MSSA strains; MSSA ATCC 29213): 0.25 | FIC (MSSA strains; MSSA JMI-6625): 0.0625 | FIC (MSSA strains; MSSA JMI-6885): 0.25 | FIC (MSSA strains; MSSA JMI-6886): 0.25 | FIC (MSSA strains; MSSA JMI-7054): 0.25 | FIC (MSSA strains; MSSA JMI-7160): 0.25 | FIC (MSSA strains; MSSA JMI-38739): 0.25 | FIC (MSSA strains; MSSA JMI-38986): 0.125 | FIC (MSSA strains; MSSA JMI-40671): 0.25 | FIC (MSSA strains; MSSA JMI-46142): 0.25 | ΣFICmin (MSSA strains; MSSA ATCC 29213): 0.5 | ΣFICmin (MSSA strains; MSSA JMI-6625): 0.3125 | ΣFICmin (MSSA strains; MSSA JMI-6885): 0.375 | ΣFICmin (MSSA strains; MSSA JMI-6886): 0.5 | ΣFICmin (MSSA strains; MSSA JMI-7054): 0.5 | ΣFICmin (MSSA strains; MSSA JMI-7160): 0.5 | ΣFICmin (MSSA strains; MSSA JMI-38739): 0.5 | ΣFICmin (MSSA strains; MSSA JMI-38986): 0.375 | ΣFICmin (MSSA strains; MSSA JMI-40671): 0.375 | ΣFICmin (MSSA strains; MSSA JMI-46142): 0.5 | mean bacterial density vs starting inoculum (S. aureus isolates; pp296 0.5 mg/kg IV + sub-therapeutic daptomycin): 0.80±1.19 log10 CFU/thigh | mean bacterial density vs starting inoculum (S. aureus isolates; pp296 50 mg/kg IV + sub-therapeutic daptomycin): −0.72±0.59 log10 CFU/thigh | average growth vs starting inoculum (S. aureus isolates; pp296 50 mg/kg alone, 8 isolates (daptomycin study)): 1.36±1.35 log10 CFU/thigh | FIC index ([1]; with daptomycin): ~0.5 | FIC index ([1]; with vancomycin): ~0.5
